# According to PMC12854727:
# Columns and labels:
# [1] = molecular target: HKU1 isolate N1 (genotype A) RBD, wildtype, biotinylated (avi tag) (UniProt Q5MQD0); experiment: BLI; details: read off a plot; for percent of parent: area under the binding response curve
# [2] = molecular target: cleaved human TMPRSS2 ectodomain harboring the S441A residue substitution and a C379-T447C disulfide bond (UniProt O15393); experiment: BLI; details: 100 nM TMPRSS2 S441A for 200 seconds followed by dissociation for 400 seconds; RBD on SA biosensors; value read at 200 s; parent: est. 0.53; read off a plot
# [3] = molecular target: human TMPRSS2 ectodomain harboring S441, the DS mutation, SUMO and the N249 glycan (self-activating; wildtype of Figure 4C) (human) (UniProt O15393); experiment: enzyme inhibition kinetics (peptidase assay, competitive inhibition fit); 5 nM TMPRSS2 with serial dilutions of Boc-QAR-AMC substrate in the presence of 215, 72 or 24 nM HKU1 RBD, 22 °C; TMPRSS2 incubated 2 minutes with the RBD before substrate
# [4] = 100 nM TMPRSS2 mutants for 200 seconds followed by dissociation for 400 seconds, RBD on SA biosensors, value read at 200 s, parent: est. 0.50
Substance,percent of parent ([1]; 100 nM TMPRSS2) [% WT],further results
"human TMPRSS2 ectodomain harboring S441, the DS mutation, SUMO and the N249 glycan (self-activating; wildtype of Figure 4C) (from UniProt O15393) S463F",1.6,–
"human TMPRSS2 ectodomain harboring S441, the DS mutation, SUMO and the N249 glycan (self-activating; wildtype of Figure 4C) (from UniProt O15393) L419A",4.1,–
"human TMPRSS2 ectodomain harboring S441, the DS mutation, SUMO and the N249 glycan (self-activating; wildtype of Figure 4C) (from UniProt O15393) Y414S",28,–
"HKU1 isolate N1 (genotype A) RBD, wildtype, biotinylated (avi tag) (from UniProt Q5MQD0) E505A",–,response [2]: 0.36 nm
"human TMPRSS2 ectodomain harboring S441, the DS mutation, SUMO and the N249 glycan (self-activating; wildtype of Figure 4C) (from UniProt O15393) S441A",–,"percent of parent ([1]; 100 nM TMPRSS2, Not activated: uncleaved S441A TMPRSS2): 1.4 % WT; percent of parent ([1]; 100 nM TMPRSS2, cleaved (activated by enterokinase)): 100 % WT"
"human TMPRSS2 ectodomain harboring S441, the DS mutation, SUMO and the N249 glycan (self-activating; wildtype of Figure 4C) (from UniProt O15393) T341S",85,–
"HKU1 isolate N1 (genotype A) RBD, wildtype, biotinylated (avi tag) (from UniProt Q5MQD0) L510A",–,response [2]: 0 nm
"human TMPRSS2 ectodomain harboring S441, the DS mutation, SUMO and the N249 glycan (self-activating; wildtype of Figure 4C) (from UniProt O15393) D417N",15,–
"human TMPRSS2 ectodomain harboring S441, the DS mutation, SUMO and the N249 glycan (self-activating; wildtype of Figure 4C) (from UniProt O15393) L419M",51,–
"human TMPRSS2 ectodomain harboring S441, the DS mutation, SUMO and the N249 glycan (self-activating; wildtype of Figure 4C) (from UniProt O15393) S412N",110,–
"HKU1 isolate N1 (genotype A) RBD, wildtype, biotinylated (avi tag) (from UniProt Q5MQD0) V509A",–,response [2]: 0.1 nm
"human TMPRSS2 ectodomain harboring S441, the DS mutation, SUMO and the N249 glycan (self-activating; wildtype of Figure 4C) (from UniProt O15393) R413K",77,–
"human TMPRSS2 ectodomain harboring S441, the DS mutation, SUMO and the N249 glycan (self-activating; wildtype of Figure 4C) (from UniProt O15393) Y469N",10,–
"HKU1 isolate N1 (genotype A) RBD, wildtype, biotinylated (avi tag) (from UniProt Q5MQD0) Y528A",–,response [2]: 0.11 nm
"human TMPRSS2 ectodomain harboring S441, the DS mutation, SUMO and the N249 glycan (self-activating; wildtype of Figure 4C) (from UniProt O15393) A468P",95,–
"S441A House Mouse TMPRSS2 ectodomain (DS mutation, SUMO, N249 glycan) S412N",–,"response ([1]; 100 nM TMPRSS2, area under the binding response curve normalised to human WT TMPRSS2, not to the mouse parent, parent: est. 19): 38 % WT"
"human TMPRSS2 ectodomain harboring S441, the DS mutation, SUMO and the N249 glycan (self-activating; wildtype of Figure 4C) (from UniProt O15393) Y414R",3.9,–
human TMPRSS2 ectodomain with S441 and the C379-T447C disulfide bond (wildtype of Figure 2F) (from UniProt O15393) R470A,–,"response [1, 4]: 0.14 nm"
"human TMPRSS2 ectodomain harboring S441, the DS mutation, SUMO and the N249 glycan (self-activating; wildtype of Figure 4C) (from UniProt O15393) R409T",79,–

Substance,percent of parent ([1]; 100 nM TMPRSS2) [% WT],further results
"human TMPRSS2 ectodomain harboring S441, the DS mutation, SUMO and the N249 glycan (self-activating; wildtype of Figure 4C) (from UniProt O15393) V415I",71,–
human TMPRSS2 ectodomain with S441 and the C379-T447C disulfide bond (wildtype of Figure 2F) (from UniProt O15393) Y469A,–,"response [1, 4]: 0.36 nm"
"human TMPRSS2 ectodomain harboring S441, the DS mutation, SUMO and the N249 glycan (self-activating; wildtype of Figure 4C) (from UniProt O15393) R470K",1.6,–
"HKU1 isolate N1 (genotype A) RBD, wildtype, biotinylated (avi tag) (from UniProt Q5MQD0) W515A",–,response [2]: 0 nm
House Mouse TMPRSS2 ectodomain S441A,–,"response ([1]; 100 nM TMPRSS2, area under the binding response curve normalised to human WT TMPRSS2, not to the mouse parent): 19 % WT"
"human TMPRSS2 ectodomain harboring S441, the DS mutation, SUMO and the N249 glycan (self-activating; wildtype of Figure 4C) (from UniProt O15393) R409K",81,–
"human TMPRSS2 ectodomain harboring S441, the DS mutation, SUMO and the N249 glycan (self-activating; wildtype of Figure 4C) (from UniProt O15393) S463Y",1.5,–
human TMPRSS2 ectodomain with S441 and the C379-T447C disulfide bond (wildtype of Figure 2F) (from UniProt O15393) W461A,–,"response [1, 4]: 0 nm"
"human TMPRSS2 ectodomain harboring S441, the DS mutation, SUMO and the N249 glycan (self-activating; wildtype of Figure 4C) (from UniProt O15393) S412N; Y469L",81,–
human TMPRSS2 ectodomain with S441 and the C379-T447C disulfide bond (wildtype of Figure 2F) (from UniProt O15393) Y414A,–,"response [1, 4]: 0.1 nm"
"HKU1 isolate N1 (genotype A) RBD, wildtype, biotinylated (avi tag) (from UniProt Q5MQD0) H488A",–,response [2]: 0.18 nm
"human TMPRSS2 ectodomain harboring S441, the DS mutation, SUMO and the N249 glycan (self-activating; wildtype of Figure 4C) (from UniProt O15393) S463T",2,–
"human TMPRSS2 ectodomain harboring S441, the DS mutation, SUMO and the N249 glycan (self-activating; wildtype of Figure 4C) (from UniProt O15393) Y414L",2.5,–
"human TMPRSS2 ectodomain harboring S441, the DS mutation, SUMO and the N249 glycan (self-activating; wildtype of Figure 4C) (from UniProt O15393) Y469L",130,–
"HKU1 isolate N1 (genotype A) RBD, wildtype, biotinylated (avi tag) (from UniProt Q5MQD0) R517A",–,response [2]: 0.022 nm
"HKU1 isolate N1 (genotype A) RBD, wildtype, without avi tag (from UniProt Q5MQD0 320-614) (domain or fragment)",–,Ki [3]: 0.038 µM
"human TMPRSS2 ectodomain harboring S441, the DS mutation, SUMO and the N249 glycan (self-activating; wildtype of Figure 4C) (from UniProt O15393) K340D",57,–
"human TMPRSS2 ectodomain harboring S441, the DS mutation, SUMO and the N249 glycan (self-activating; wildtype of Figure 4C) (from UniProt O15393) R413V",85,–
